# Biological target: Hsp70 (recombinant) (UniProt P0DMV8)
# Experiment: MST; sTNFR1 or Hsp70 labeled with Alexa Fluor 633 or 488 (200 nM), 20 min in the dark at room temperature with 16 concentrations of each compound; Monolith NT 115, IR laser power 10%; apparent Kd; triplicate
row,Kd,Binder
1,3.15 nM,RSNYVLKG [peptide 17.1B]
2,1.73 nM,Tag7 protein (PGLYRP1) (natural protein) QETEDPACCSPIVPRNEWKALASECAQHLSLPLRYVVVSHTAGSSCNTPASCQQQARNVQHYHMKTLGWCDVGYNFLIGEDGLVYEGRGWNFTGAHSGHLWNPMSIGISFMGNYMDRVPTPQAIRAAQGLLACGVAQGALRSNYVLKGHRDVQRTLSPGNQLYHLIQNWPHYRSP
3,222 nM,HRDVQRT [peptide 17.1A]
